2 molecules from paper PMC4598080 can be followed below.

Assay [1] deals with T1, Rpl5 (uL18) (S. cerevisiae (endogenous in yeast cells)) (UniProt P26321).
T1 sequence: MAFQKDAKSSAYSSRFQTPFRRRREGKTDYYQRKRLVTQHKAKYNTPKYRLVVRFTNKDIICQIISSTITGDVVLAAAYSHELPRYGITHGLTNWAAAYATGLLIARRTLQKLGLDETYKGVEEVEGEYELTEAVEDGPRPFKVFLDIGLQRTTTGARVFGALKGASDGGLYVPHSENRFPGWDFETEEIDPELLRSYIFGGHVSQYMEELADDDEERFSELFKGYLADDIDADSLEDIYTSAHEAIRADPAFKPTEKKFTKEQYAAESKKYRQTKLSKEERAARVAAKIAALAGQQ

Assay [2] has as its target Rpl4 (uL4), non-ribosome bound (S. cerevisiae (endogenous in yeast cells)) (UniProt P10664).
UniProt P10664, sequence (P10664 whole entry): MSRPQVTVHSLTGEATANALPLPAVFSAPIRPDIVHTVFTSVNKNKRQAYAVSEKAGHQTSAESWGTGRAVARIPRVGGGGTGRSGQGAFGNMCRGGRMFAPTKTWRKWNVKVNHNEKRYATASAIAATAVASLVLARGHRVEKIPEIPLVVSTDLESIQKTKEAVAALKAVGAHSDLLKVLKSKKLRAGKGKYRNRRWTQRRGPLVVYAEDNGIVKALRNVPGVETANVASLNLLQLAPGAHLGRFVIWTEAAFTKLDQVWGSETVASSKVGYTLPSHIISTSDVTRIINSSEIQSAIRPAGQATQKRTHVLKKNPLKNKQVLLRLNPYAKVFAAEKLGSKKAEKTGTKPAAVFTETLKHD

B1: Syo1-FTpA (natural protein)
chain: MGRSKKRSRASSSRLNPLRKAGSNDNNKDTNVVNKKLQPLLQNLSSVVPNDRSIALSSISVLCEDAHMRQLLLKEKLVPIILNKLLNDSNSDIVVESFGLLRNLSLEEGYDVSIYLWRSDIWTSITSNFGRIVESLSALQAAEQQPQLKPAGKSKIESKRLLFDFADNLLSLVVALSNGSDDILNEILTESKINEIFQVISQLLKYGVEKLPINLFNTTLDLIYDLSSESFEFIDHVSNNELLSQFLNGLSPALHPQANELTKVLIEGIHCQFLDMKITYDQCNKMIHSVCHSINNIDPVQLVNDINNPVEIGPATSKDESSKVITKIKDYNAKRNESMIKLQSIEIAIDLITAIIEIVASKYESPESQEVAIPEELINTLTNFLPHVFMILKDTFTSRILIGWNNLIWLFVSLSLTELSGELLTTLWSYVTQLDSQDDLSIKIGRMGCIWALLKLIFPDGAFESENRALINVQMLNNSGFARGIIEEFQNNNDLELQQKCINVLSTYAMIQGQIDANKEIGQFFIQTLTQLNVRPEILIEMTNSLFQIYGDASYDYNEPIFVRGGFLSILKDQVVPNLRQQFKMVDKNKNPELKERCHDCFTTLDSFIHYKMNENSTNQ
For B1, the enrichment of the RPL5 mRNA, compared to the non-specific r-protein mRNAs, in the Syo1-FTpA IgG-Sepharose purification from extracts of cycloheximide-treated cells (real-time qRT-PCR) in assay [1] was determined as 150 fold.

B2: C-terminally TAP-tagged Acl4 (natural protein)
chain: MSELEATIRQAKEALAENNAKKALKILKPFKSSLKKENANNVILNEVFADAYLDNGQVEKAYPILARACELDPEGQVGGPDKFFTMGQIMGGQDGVSIITRGIMNISNTGGEMLTNVQVEKIVGGLLSVIEIWMTDLCMEPNAEEQCEELIQKAMELTEGKSPETWSTLGSIKISQQKFGEAYEAFSQAWNFFELKKQEIGSGINENGDTTQKAGLQSEYVDLLQPLLSLTKMCLEVGAYEVALKVIAAVRDIDEDNIEGYYLEGFTYYLMSKLEIFKLNNPEVSLRPENIYEFNQLIQEVPLDLSHEPISQLIYDSRLALSFALQAGVNADSKDEIVQELLGGANALLQEIGGPLDPSELTQIKKGDLVNENEDLEELDIEEEYSD
B2: the enrichment of the RPL4 mRNA, compared to the non-specific r-protein mRNAs, in the Acl4-TAP IgG-Sepharose purification from extracts of cycloheximide-treated cells (real-time qRT-PCR) in assay [2] worked out at 150 fold.
